Laboratory results taken from patent US20110033935.
Residue numbers refer to the chain shown, from its start.

Target: T1, HSV2
T1 chain: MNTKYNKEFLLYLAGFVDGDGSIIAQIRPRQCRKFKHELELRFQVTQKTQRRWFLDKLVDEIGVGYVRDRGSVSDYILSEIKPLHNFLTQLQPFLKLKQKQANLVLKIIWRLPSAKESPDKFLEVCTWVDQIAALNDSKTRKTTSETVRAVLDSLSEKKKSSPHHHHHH

B1: HSV1 (protein)
chain: T1 chain with R28K, C32S, R33C, E40R, R42Q
cleavage of a linearized DNA substrate with the intended non-palindromic recognition sequence (SEQ ID NO: 28, HSV UL36 gene) by the 1:1 mixture: each rationally-designed meganuclease heterodimer cleaves its intended DNA site
